Values of other authors in publication PMC8989918.
pKd: −log10 of the molar value.

Experiments:
[1] = target: PTPN12 (PTP-PEST) (Homo sapiens) (UniProt Q05209)
[2] = target: PTPN22 SH3-binding peptide (Homo sapiens) (UniProt Q9Y2R2)
Sequence of PTPN22 SH3-binding peptide (Homo sapiens) (Q9Y2R2 whole entry): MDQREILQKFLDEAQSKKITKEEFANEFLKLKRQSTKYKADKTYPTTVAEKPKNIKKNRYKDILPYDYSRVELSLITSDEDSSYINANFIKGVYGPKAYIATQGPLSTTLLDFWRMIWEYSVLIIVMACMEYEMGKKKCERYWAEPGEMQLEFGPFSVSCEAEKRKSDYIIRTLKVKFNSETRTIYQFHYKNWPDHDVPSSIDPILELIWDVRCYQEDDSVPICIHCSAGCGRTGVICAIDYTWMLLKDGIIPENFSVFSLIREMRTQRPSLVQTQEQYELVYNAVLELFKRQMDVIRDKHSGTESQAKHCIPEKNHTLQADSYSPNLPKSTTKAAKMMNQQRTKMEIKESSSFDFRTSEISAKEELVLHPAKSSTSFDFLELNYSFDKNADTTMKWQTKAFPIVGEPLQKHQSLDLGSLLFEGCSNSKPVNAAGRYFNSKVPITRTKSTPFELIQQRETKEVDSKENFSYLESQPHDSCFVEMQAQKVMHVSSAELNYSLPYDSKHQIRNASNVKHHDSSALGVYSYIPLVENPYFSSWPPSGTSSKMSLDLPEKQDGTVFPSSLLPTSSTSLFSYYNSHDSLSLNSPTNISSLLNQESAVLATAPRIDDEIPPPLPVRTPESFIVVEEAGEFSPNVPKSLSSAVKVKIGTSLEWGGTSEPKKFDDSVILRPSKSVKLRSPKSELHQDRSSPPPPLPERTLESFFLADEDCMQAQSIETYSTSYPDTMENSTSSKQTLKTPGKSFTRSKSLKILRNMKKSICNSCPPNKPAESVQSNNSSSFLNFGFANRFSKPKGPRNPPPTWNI

Sequence of Csk SH3 (P41240 6-73): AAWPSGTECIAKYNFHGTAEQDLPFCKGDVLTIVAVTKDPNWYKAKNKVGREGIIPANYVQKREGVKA
Sequence of PTPN12 (PTP-PEST) (Homo sapiens) (Q05209 whole entry): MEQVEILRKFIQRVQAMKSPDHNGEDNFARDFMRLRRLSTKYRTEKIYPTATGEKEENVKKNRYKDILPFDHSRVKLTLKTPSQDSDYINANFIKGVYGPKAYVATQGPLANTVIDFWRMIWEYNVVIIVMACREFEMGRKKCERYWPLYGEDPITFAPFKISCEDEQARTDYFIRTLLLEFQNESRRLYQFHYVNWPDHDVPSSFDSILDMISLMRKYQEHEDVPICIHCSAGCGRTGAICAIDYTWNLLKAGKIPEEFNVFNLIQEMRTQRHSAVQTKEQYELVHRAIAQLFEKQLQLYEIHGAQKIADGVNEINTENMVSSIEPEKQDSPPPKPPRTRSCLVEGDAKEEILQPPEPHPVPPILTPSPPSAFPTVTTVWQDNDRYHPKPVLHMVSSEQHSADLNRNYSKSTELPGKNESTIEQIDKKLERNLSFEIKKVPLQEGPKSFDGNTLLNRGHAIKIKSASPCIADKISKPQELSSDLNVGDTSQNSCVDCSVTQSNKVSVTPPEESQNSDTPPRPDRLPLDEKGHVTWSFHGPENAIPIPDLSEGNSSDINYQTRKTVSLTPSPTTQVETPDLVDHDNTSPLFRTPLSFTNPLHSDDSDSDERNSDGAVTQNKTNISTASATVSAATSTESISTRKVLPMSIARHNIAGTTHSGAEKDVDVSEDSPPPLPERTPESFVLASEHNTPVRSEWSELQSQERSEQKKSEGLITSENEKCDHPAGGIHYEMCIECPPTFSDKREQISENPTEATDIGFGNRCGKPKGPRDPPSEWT

Substance: Csk SH3 (from UniProt P41240)
- pKd [1]: 5.10
- pKd [2]: 6.10
